The text below walks through data of article PMC9860317, “Regulation of the DEAH/RHA helicase Prp43 by the G-patch factor Pfa1” (Proceedings of the National Academy of Sciences of the …, 2022).

Values joined by “and” are separate entries in the source; they are usually repeats but may differ in a detail not shown here. Equal entries are not always repeated.

Series [1] addresses Chaetomium thermophilum Prp43 with fluorescence labelling sites at C170 (RecA1) and C303 (RecA2), Cy3/Cy5-labelled (Chaetomium thermophilum).
In series [2] the target is scPrp43 (Saccharomyces cerevisiae S288c) (UniProt P53131). Kind of series: fluorescence polarization. The following applies: smFRET: 50 mM Tris-HCl pH 7.5, 150 mM KCl, 3 mM MgCl2 (TIRF buffer B; imaging in TIRF buffer C), FP: 6 nM labeled ssRNA, buffer and temperature not in material. Background: In fluorescence polarisation assays a small probe gives low polarisation when free and higher when bound to something large.

In series [3] the target is T1, scPrp43;scPfa1(gp) (Saccharomyces cerevisiae S288c;Saccharomyces cerevisiae) (UniProt P53131+P53866). Description: fluorescence polarization. To be noted: smFRET: 50 mM Tris-HCl pH 7.5, 150 mM KCl, 3 mM MgCl2 (TIRF buffer B; imaging in TIRF buffer C), FP: 6 nM labeled ssRNA, buffer and temperature not in material.
The target of series [4] is scPrp43 (Saccharomyces cerevisiae S288c) (UniProt P53131). Description: smFRET (TIRF). To be noted: smFRET: 50 mM Tris-HCl pH 7.5, 150 mM KCl, 3 mM MgCl2 (TIRF buffer B; imaging in TIRF buffer C), FP: 6 nM labeled ssRNA, buffer and temperature not in material.
For series [5], the target named is T1, scPrp43;scPfa1(gp) (Saccharomyces cerevisiae S288c;Saccharomyces cerevisiae). Description: smFRET (TIRF). To be noted: smFRET: 50 mM Tris-HCl pH 7.5, 150 mM KCl, 3 mM MgCl2 (TIRF buffer B; imaging in TIRF buffer C), FP: 6 nM labeled ssRNA, buffer and temperature not in material.

In series [1], “G-patch motif of Chaetomium thermophilum Pfa1 (domain or fragment)” displayed an ATP turnover (kcat) of the Prp43–Pfa1(gp) complex with ssRNA, coupled enzymatic assay of 9.6 s⁻¹ and an ATP turnover (kcat) of the Prp43–Pfa1(gp) complex without ssRNA, coupled enzymatic assay (Prp43 alone: kcat = 0.01 s^-1) of 0.4 s⁻¹.

For ssRNA (fluorescence polarization), the Kd in series [2] (ADP) is over 100000 nM; in series [2] (AMPPNP), 400 nM; in series [2] (nucleotide-free), 7000 nM; in series [3] (nucleotide-free, with Pfa1(gp)) it was 30 nM; in series [3] it was 80 nM and 500 nM.

As for “GCGCCUACGCCACCAGCUCCGUAGGCGCAGGAGCGCCUACGGAGCUGGUGGCGUAGGCGCAAAAAAAAAAAAAAAUAAAAAAAAAAAAAAAAAAAA [smFRET stem-loop RNA probe with 3' overhang]”, the binding signal in series [4] (0.5 uM Prp43, 2 mM AMPPNP) was 36 % bound; in series [4] (5 uM Prp43, apo (main text gives 24%)) it was 21 % bound; in series [5] (0.5 uM Prp43, 2.5 uM Pfa1(gp), nucleotide-free) it was 88 % bound; in series [5] (ADP, koff 0.45 s-1), 52 % bound. In series [5] (2 uM ATP, table row label cut, matched by FRET values), the binding signal (% bound (plus 20% partially unwound)) came to 55.

A word on the Kd: it is the concentration at which binding is half-saturated. Higher therefore signals lower affinity.
